In patent US20160243251:

Key:
Assay in all cases: FP
[1] = system: T1, TMR-KRRR (TMR-LKLRLRLR, C-terminal carboxylate) (synthetic); conditions: CITED Xiong et al; pH 7.4; DNA assumed same 30-mer; cited from earlier work
T1 sequence: KRRR

[2] = system: T2, TMR-(CH2)5-DKDRDRDR-NH2 (synthetic); conditions: 2 mM NaCl, pH 7.4
T2 sequence: KRRR

[3] = system: TMR-β3Rβ3Rβ3Rβ3K-NH2 (synthetic); conditions: 2 mM NaCl, pH 7.4
[4] = system: TMR-LRS-LRS-LRS-LRS-NH2 (tetra L-2-amino-3-guanidinopropionic acid) (synthetic); conditions: 2 mM NaCl, pH 7.4
[5] = system: TMR-RRRK-NH2 (TMR-LRLRLRLK-NH2) (synthetic); conditions: 2 mM NaCl, pH 7.4
[6] = system: TMR-DRDRDRDK-NH2 (synthetic); conditions: 2 mM NaCl, pH 7.4
[7] = system: T3, TMR-KRRR-NH2 (TMR-LKLRLRLR-NH2) (synthetic); conditions: 2 mM NaCl, pH 7.4
T3 sequence: KRRR

[8] = system: T4, TMR-LKDRLRDR-NH2 (synthetic); conditions: 2 mM NaCl, pH 7.4
T4 sequence: KRRR

[9] = system: T5, TMR-DKDRDRDR-NH2 (synthetic); conditions: 2 mM NaCl, pH 7.4
T5 sequence: KRRR

[10] = system: TMR-KKKK-NH2 (TMR-LKLKLKLK-NH2) (synthetic); conditions: 2 mM NaCl, pH 7.4
[11] = system: TMR-RRRR (TMR-LRLRLRLR, C-terminal carboxylate) (synthetic); conditions: CITED Xiong et al; pH 7.4; DNA assumed same 30-mer; cited from earlier work
[12] = system: T6, TMR-(CH2)5-KRRR-NH2 (L) (synthetic); conditions: 2 mM NaCl, pH 7.4
T6 sequence: KRRR

[13] = system: KRRRC(-TMR)-NH2 (LKLRLRLRLC(-TMR)-NH2) (synthetic); conditions: 2 mM NaCl, pH 7.4; p253 text gives 46 ± 9
[14] = system: TMR-LRL-LRL-LRL-LRL-NH2 (tetra L-homo-arginine) (synthetic); conditions: 2 mM NaCl, pH 7.4
[15] = system: TMR-RRRR-NH2 (TMR-LRLRLRLR-NH2) (synthetic); conditions: 2 mM NaCl, pH 7.4
[16] = system: TMR-β3Kβ3Rβ3Rβ3R-NH2 (synthetic); conditions: 2 mM NaCl, pH 7.4

Sequence: GACGACTAGGACGACGACGAGGATGACGAC (double strand) [30-mer dsDNA]
- Kd [1]: 197 nM
- Kd [2]: 47 nM
- Kd [3]: 49 nM
- Kd [4]: 129 nM
- Kd [5]: 28 nM
- Kd [6]: 37 nM
- Kd [7]: 46 nM
- Kd [8]: 36 nM
- Kd [9]: 44 nM
- Kd [10]: 53 nM
- Kd [11]: 236 nM
- Kd [12]: 46 nM
- Kd [13]: 54 nM
- Kd [14]: 13 nM
- Kd [15]: 31 nM
- Kd [16]: 41 nM
